Experiments:
mouse IL-1β = biological target: T1, mouse IL-1β (mouse, UniProt P10749 118-269); experiment: SPR, Biacore 8K, mAb captured on anti-human Fc chip, soluble IL-1β as analyte
T1 construct: also called mouse IL-β
T1 sequence (looked up): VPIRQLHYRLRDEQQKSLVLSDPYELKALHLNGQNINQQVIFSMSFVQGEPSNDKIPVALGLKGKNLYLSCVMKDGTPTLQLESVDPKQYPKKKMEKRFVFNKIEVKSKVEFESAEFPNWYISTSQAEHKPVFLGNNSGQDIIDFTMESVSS
Protocol: (§1) Affinity assessment of 05H21A, 15N14A, and 08F17A against human IL-1β was performed by Surface Plasmon Resonance (SPR) using a Biacore 8k. Cross-reactivity of the same antibody panel was also assessed against cyno, mouse, rat and pig IL-1β.
(§2) SPR is a label-free technique to study the strength of an interaction between two binding partners by measuring the change in mass upon complex formation and dissociation. Briefly, antibodies were immobilized on a sensor chip which was coupled with goat anti-human Fc (GAH-Fc C1 sensor chip). Soluble IL-1β was flowed over the immobilized antibody and association/dissociation responses were monitored. Kinetic information (on-rate and off-rate constants) were extracted by fitting sensorgrams to the 1:1 Langmuir model. Binding affinity (KD) were reported as the ratio of rate constants (koff/kₒₙ).

pig IL-1β = biological target: T2, pig IL-1β (pig, UniProt P26889 115-267); experiment: as above
T2 construct: also called pig IL-β
T2 sequence (looked up): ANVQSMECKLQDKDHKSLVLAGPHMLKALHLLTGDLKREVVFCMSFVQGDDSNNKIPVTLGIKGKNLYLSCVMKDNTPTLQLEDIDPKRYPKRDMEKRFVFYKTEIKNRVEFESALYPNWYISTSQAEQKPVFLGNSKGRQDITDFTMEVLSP
Protocol: as §1, §2

human IL-1β [1] = biological target: T3, human IL-1β (human, UniProt P01584 117-269); experiment: cell-based or functional assay
human IL-1β [2] = biological target: T3, human IL-1β; experiment: cell-based or functional assay; remark: listed apart in the source
cynomolgus IL-1β [3] = biological target: T4, cynomolgus IL-1β (cynomolgus macaque, UniProt P79182 117-268); experiment: cell-based or functional assay
T4 sequence (looked up): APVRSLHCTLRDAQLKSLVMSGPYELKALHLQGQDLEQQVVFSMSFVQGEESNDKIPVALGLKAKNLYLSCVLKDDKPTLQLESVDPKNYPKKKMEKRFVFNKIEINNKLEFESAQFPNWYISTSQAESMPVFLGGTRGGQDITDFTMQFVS

human IL-1β [4] = biological target: T3, human IL-1β; experiment: cell-based or functional assay; remark: listed apart in the source
cynomolgus IL-1β [5] = biological target: T4, cynomolgus IL-1β; experiment: SPR, Biacore 8K, mAb captured on goat anti-human Fc C1 chip, soluble IL-1β as analyte, 1:1 Langmuir fit
Protocol: as §1, §2

rat IL-1β = biological target: T5, rat IL-1β (rat, UniProt Q63264 117-268); experiment: as above
T5 construct: also called rat IL-β
T5 sequence (looked up): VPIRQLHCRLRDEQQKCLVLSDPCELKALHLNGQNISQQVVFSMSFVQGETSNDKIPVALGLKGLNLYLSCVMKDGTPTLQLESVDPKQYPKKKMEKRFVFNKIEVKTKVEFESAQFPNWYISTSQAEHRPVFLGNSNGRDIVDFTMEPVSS
Protocol: as §1, §2

human IL-1β [6] = biological target: T3, human IL-1β; experiment: as above
Protocol: as §1, §2

- binding result (mouse IL-1β): no binding
- binding result (pig IL-1β): no binding
- IC30, inhibition of rhIL-1β-induced CXCL5 release, human whole blood (5 donors) (human IL-1β [1]): 0.364 nM
- IC30, inhibition of rhIL-1β-induced G-CSF release, human whole blood (5 donors) (human IL-1β [1]): 0.299 nM
- IC30, inhibition of rhIL-1β-induced IL-6 release, human whole blood (5 donors) (human IL-1β [1]): 0.36 nM
- IC50, inhibition of rhIL-1β-induced CXCL5 release, human whole blood (5 donors) (human IL-1β [1]): 0.603 nM
- IC50, inhibition of rhIL-1β-induced G-CSF release, human whole blood (5 donors) (human IL-1β [1]): 0.52 nM
- IC50, inhibition of rhIL-1β-induced IL-6 release, human whole blood (5 donors) (human IL-1β [1]): 0.595 nM
- IC90, inhibition of rhIL-1β-induced CXCL5 release, human whole blood (5 donors) (human IL-1β [1]): 2.24 nM
- IC90, inhibition of rhIL-1β-induced G-CSF release, human whole blood (5 donors) (human IL-1β [1]): 2.18 nM
- IC90, inhibition of rhIL-1β-induced IL-6 release, human whole blood (5 donors) (human IL-1β [1]): 2.18 nM
- IC30, inhibition of rhIL-1β-induced cytokine release, NHDF donor 29114 (human IL-1β [2]): 0.069 nM
- IC30, inhibition of rhIL-1β-induced cytokine release, NHLF donor 34325 (human IL-1β [2]): 0.128 nM
- IC30, inhibition of rhIL-1β-induced cytokine release, NHLF donor 35234 (human IL-1β [2]): 0.09 nM
- IC50, inhibition of rhIL-1β-induced cytokine release, NHDF donor 29114 (human IL-1β [2]): 0.127 nM
- IC50, inhibition of rhIL-1β-induced cytokine release, NHLF donor 34325 (human IL-1β [2]): 0.253 nM
- IC50, inhibition of rhIL-1β-induced cytokine release, NHLF donor 35234 (human IL-1β [2]): 0.178 nM
- IC90, inhibition of rhIL-1β-induced cytokine release, NHDF donor 29114 (human IL-1β [2]): 0.626 nM
- IC90, inhibition of rhIL-1β-induced cytokine release, NHLF donor 34325 (human IL-1β [2]): 1.48 nM
- IC90, inhibition of rhIL-1β-induced cytokine release, NHLF donor 35234 (human IL-1β [2]): 1.04 nM
- IC30, inhibition of G-CSF release, cynomolgus lung fibroblasts (CLF), 15 pM rcynoIL-1β (cynomolgus IL-1β [3]): 0.129 nM
- IC30, inhibition of IL-6 release, cynomolgus dermal fibroblasts (CDF), 5 pM rcynoIL-1β (cynomolgus IL-1β [3]): 93 pM
- IC30, inhibition of IL-6 release, cynomolgus lung fibroblasts (CLF), 15 pM rcynoIL-1β (cynomolgus IL-1β [3]): 0.192 nM
- IC50, inhibition of G-CSF release, cynomolgus lung fibroblasts (CLF), 15 pM rcynoIL-1β (cynomolgus IL-1β [3]): 0.261 nM
- IC50, inhibition of IL-6 release, cynomolgus dermal fibroblasts (CDF), 5 pM rcynoIL-1β (cynomolgus IL-1β [3]): 0.156 nM
- IC50, inhibition of IL-6 release, cynomolgus lung fibroblasts (CLF), 15 pM rcynoIL-1β (cynomolgus IL-1β [3]): 0.376 nM
- IC90, inhibition of G-CSF release, cynomolgus lung fibroblasts (CLF), 15 pM rcynoIL-1β (cynomolgus IL-1β [3]): 1.63 nM
- IC90, inhibition of IL-6 release, cynomolgus dermal fibroblasts (CDF), 5 pM rcynoIL-1β (cynomolgus IL-1β [3]): 0.594 nM
- IC90, inhibition of IL-6 release, cynomolgus lung fibroblasts (CLF), 15 pM rcynoIL-1β (cynomolgus IL-1β [3]): 2.14 nM
- IC30, inhibition of IL-6 release, human PBMCs (n=5 donors), 10 pM rhIL-1β (human IL-1β [4]): 32 pM
- IC30, inhibition of IL-6 release, human PBMCs (n=5 donors), 30 pM rhIL-1β (human IL-1β [4]): 75 pM
- IC50, inhibition of IL-6 release, human PBMCs (n=5 donors), 10 pM rhIL-1β (human IL-1β [4]): 56 pM
- IC50, inhibition of IL-6 release, human PBMCs (n=5 donors), 30 pM rhIL-1β (human IL-1β [4]): 0.12 nM
- IC90, inhibition of IL-6 release, human PBMCs (n=5 donors), 10 pM rhIL-1β (human IL-1β [4]): 0.226 nM
- IC90, inhibition of IL-6 release, human PBMCs (n=5 donors), 30 pM rhIL-1β (human IL-1β [4]): 0.409 nM
- Kd (cynomolgus IL-1β [5]): 0.07 nM
- koff (cynomolgus IL-1β [5]): 0.000209 s⁻¹
- kon (cynomolgus IL-1β [5]): 3.01e+06 M⁻¹ s⁻¹
- Kd (rat IL-1β): 74.5 nM
- koff (rat IL-1β): 0.0574 s⁻¹
- kon (rat IL-1β): 771000 M⁻¹ s⁻¹
- Kd (human IL-1β [6]): 0.064 nM
- koff (human IL-1β [6]): 0.000141 s⁻¹
- kon (human IL-1β [6]): 2.2e+06 M⁻¹ s⁻¹
B1: 15N14A (antibody, human IgG1, lambda, V domains shown)
VH: QVQLQESGPGLVKPSETLSLTCTVSGGSISSYYWTWIRQPAGKGLEWIGRIDSSGSSKYNPTLKSRVTMSVDTSKNQFSLKLSSVTAADTAVYYCARGDSGYDWAFDYWGQGTLVTVSS
VL: QAVLTQPSSLSASPGASASLTCTLRSGINVGTYRIYWYQQKPGSPPQYLLSYKSDSDKQQGSGVPSRFSGSKDASANVGILLISGLQSEDEADYYCMIWHSSAWVFGGGTKLTVLG
notes: Lambda light chain; also called 15N14A (anti-IL-1β) mAb [IgG1: YTE]
